Test results from patent publication CN115894698A (SHAANXI MYBIOTECH CO LTD, dated 2023).

B1: 人CHI3L1单克隆抗体1D7(杂交瘤细胞1D7-C5-D5培养上清) (antibody, V domains shown)
VH: EVQLLETGGGLVQPGGSRGLSCEGSGFTFSGFWMSWVRQTPGKTLEWIGDINSDGSTINYAPSIKDRFTIFRDNDKSTLYLQMSNVRSEDTATYFCMRYKGAHWGQGTLVTVSA
VL: not shown
notes: Tested as culture supernatant; also called 1D7杂交瘤细胞上清; 阳性杂交瘤细胞上清
B2: 重组单克隆抗体1D7(1D7m2a + 1D7mk，293T细胞上清) (antibody, V domains shown)
VH: B1 VH
VL: not shown
notes: VH cloned into pFUSE-CHIg-m2a (mouse IgG2a constant region of the vector), VL into pFUSE2ss-CLIg-mk (mouse kappa); Tested as 293T culture supernatant; also called 重组1D7单克隆抗体; 重组单克隆细胞上清

Tests used:
[1] = molecular target: T1, CHI3L1-6his(pcDNA3.1，在293T细胞中过表达的完整人CHI3L1) (human, UniProt P36222 22-383); experiment: CBA, immunofluorescence on acetone-fixed 293T cells overexpressing CHI3L1-6his
T1 construct: whole, on cells; CBA / immunofluorescence target: transfected, acetone-fixed 293T cells; also called 完整CHI3L1序列; 过表达CHI3L1蛋白的细胞; not shown: 6his tag

[2] = molecular target: T2, Q CHI3L1-329-346-6his(缺失329-346片段的CHI3L1构建体) (human, UniProt P36222 22-383); experiment: immunofluorescence on transfected, acetone-fixed 293T cells
T2 construct: Deletion construct, overexpressed in 293T cells from pcDNA3.1, acetone-fixed; not shown: 6his tag

[3] = molecular target: T1, CHI3L1-6his(pcDNA3.1，在293T细胞中过表达的完整人CHI3 …; experiment: as above

Row | Binder | binding result [1] | binding result [2] | binding result [3]
1 | B1 | binds |  | 
2 | B2 |  | no binding | binds
